Experimental data taken from paper PMC3517609.
Values joined by “and” are separate entries in the source; they are usually repeats but may differ in a detail not shown here. Equal values may be shown once.

Experiments:
[1] = target: Surfactant associated protein-A (human (endogenous in BAL fluid and serum)) (UniProt Q8IWL2); test: SEC; Superose 6 column, 500 µl of serum loaded, fractions of 800 µl, SP-A in the fractions by slot blot; column calibrated with blue dextran (2000 kDa), holotransferrin (669 kDa) and bovine serum albumin (66 kDa); a peak counts as present at 20 % or more of total SP-A
[2] = target: Surfactant associated protein-A (human (endogenous in BAL fluid and serum)) (UniProt Q8IWL2); test: SEC; Superose 6 column, 1 ml of BAL fluid loaded, fractions of 800 µl, SP-A in the fractions by slot blot; column calibrated with blue dextran (2000 kDa), holotransferrin (669 kDa) and bovine serum albumin (66 kDa); a peak counts as present at 20 % or more of total SP-A
[3] = target: Surfactant associated protein-A (human (endogenous in BAL fluid and serum)) (UniProt Q8IWL2)
[4] = target: Surfactant associated protein-A (human (endogenous in BAL fluid and serum)) (UniProt Q8IWL2); test: SEC; Superose 6 column, 500 µl of serum loaded, fractions of 800 µl, SP-A in the fractions by slot blot; column calibrated with blue dextran (2000 kDa), holotransferrin (669 kDa) and bovine serum albumin (66 kDa); a peak counts as present at 20 % or more of total SP-A; remark: listed apart in the source

Surfactant associated protein-A (from UniProt Q8IWL2 21-248) (natural protein)
stoichiometry N [1]: 2 and 3
stoichiometry N [2]: 18
size of agglutinates of anti-SP-A latex beads; BAL, 6mers, chronic bronchitis (n = 10) [3]: 316 Pixel
size of agglutinates of anti-SP-A latex beads; BAL, 6mers, controls (n = 10) [3]: 352 Pixel
size of agglutinates of anti-SP-A latex beads; BAL, 6mers, cystic fibrosis (n = 10) [3]: 234 Pixel
size of agglutinates of anti-SP-A latex beads; BAL, 18mers, chronic bronchitis (n = 10) [3]: 370 Pixel
size of agglutinates of anti-SP-A latex beads; BAL, 18mers, controls (n = 10) [3]: 517 Pixel
size of agglutinates of anti-SP-A latex beads; BAL, 18mers, cystic fibrosis (n = 10) [3]: 316 Pixel
size of agglutinates of anti-SP-A latex beads; BAL, trimers, chronic bronchitis (n = 10) [3]: 114 Pixel
size of agglutinates of anti-SP-A latex beads; BAL, trimers, controls (n = 10) [3]: 118 Pixel
size of agglutinates of anti-SP-A latex beads; BAL, trimers, cystic fibrosis (n = 10) [3]: 74 Pixel
size of agglutinates of anti-SP-A latex beads; serum, 6mers, chronic bronchitis (n = 10) [3]: 377 Pixel
size of agglutinates of anti-SP-A latex beads; serum, 6mers, controls (n = 10) [3]: 361 Pixel
size of agglutinates of anti-SP-A latex beads; serum, 6mers, cystic fibrosis (n = 10) [3]: 380 Pixel
size of agglutinates of anti-SP-A latex beads; serum, 18mers, chronic bronchitis (n = 10) [3]: 469 Pixel
size of agglutinates of anti-SP-A latex beads; serum, 18mers, controls (n = 10) [3]: 525 Pixel
size of agglutinates of anti-SP-A latex beads; serum, 18mers, cystic fibrosis (n = 10) [3]: 481 Pixel
size of agglutinates of anti-SP-A latex beads; serum, trimers, chronic bronchitis (n = 10) [3]: 143 Pixel
size of agglutinates of anti-SP-A latex beads; serum, trimers, controls (n = 10) [3]: 132 Pixel
size of agglutinates of anti-SP-A latex beads; serum, trimers, cystic fibrosis (n = 10) [3]: 146 Pixel
stoichiometry N [4]: 18
